B1: Kinetochore protein NDC80 homolog (Homo sapiens), O14777 (parent)
chain: MKRSSVSSGGAGRLSMQELRSQDVNKQGLYTPQTKEKPTFGKLSINKPTSERKVSLFGKRTSGHGSRNSQLGIFSSSEKIKDPRPLNDKAFIQQCIRQLCEFLTENGYAHNVSMKSLQAPSVKDFLKIFTFLYGFLCPSYELPDTKFEEEVPRIFKDLGYPFALSKSSMYTVGAPHTWPHIVAALVWLIDCIKIHTAMKESSPLFDDGQPWGEETEDGIMHNKLFLDYTIKCYESFMSGADSFDEMNAELQSKLKDLFNVDAFKLESLEAKNRALNEQIARLEQEREKEPNRLESLRKLKASLQGDVQKYQAYMSNLESHSAILDQKLNGLNEEIARVELECETIKQENTRLQNIIDNQKYSVADIERINHERNELQQTINKLTKDLEAEQQKLWNEELKYARGKEAIETQLAEYHKLARKLKLIPKGAENSKGYDFEIKFNPEAGANCLVKYRAQVYVPLKELLNETEEEINKALNKKMGLEDTLEQLNAMITESKRSVRTLKEEVQKLDDLYQQKIKEAEEEDEKCASELESLEKHKHLLESTVNQGLSEAMNELDAVQREYQLVVQTTTEERRKVGNNLQRLLEMVATHVGSVEKHLEEQIAKVDREYEECMSEDLSENIKEIRDKYEKKATLIKSSEE
partner: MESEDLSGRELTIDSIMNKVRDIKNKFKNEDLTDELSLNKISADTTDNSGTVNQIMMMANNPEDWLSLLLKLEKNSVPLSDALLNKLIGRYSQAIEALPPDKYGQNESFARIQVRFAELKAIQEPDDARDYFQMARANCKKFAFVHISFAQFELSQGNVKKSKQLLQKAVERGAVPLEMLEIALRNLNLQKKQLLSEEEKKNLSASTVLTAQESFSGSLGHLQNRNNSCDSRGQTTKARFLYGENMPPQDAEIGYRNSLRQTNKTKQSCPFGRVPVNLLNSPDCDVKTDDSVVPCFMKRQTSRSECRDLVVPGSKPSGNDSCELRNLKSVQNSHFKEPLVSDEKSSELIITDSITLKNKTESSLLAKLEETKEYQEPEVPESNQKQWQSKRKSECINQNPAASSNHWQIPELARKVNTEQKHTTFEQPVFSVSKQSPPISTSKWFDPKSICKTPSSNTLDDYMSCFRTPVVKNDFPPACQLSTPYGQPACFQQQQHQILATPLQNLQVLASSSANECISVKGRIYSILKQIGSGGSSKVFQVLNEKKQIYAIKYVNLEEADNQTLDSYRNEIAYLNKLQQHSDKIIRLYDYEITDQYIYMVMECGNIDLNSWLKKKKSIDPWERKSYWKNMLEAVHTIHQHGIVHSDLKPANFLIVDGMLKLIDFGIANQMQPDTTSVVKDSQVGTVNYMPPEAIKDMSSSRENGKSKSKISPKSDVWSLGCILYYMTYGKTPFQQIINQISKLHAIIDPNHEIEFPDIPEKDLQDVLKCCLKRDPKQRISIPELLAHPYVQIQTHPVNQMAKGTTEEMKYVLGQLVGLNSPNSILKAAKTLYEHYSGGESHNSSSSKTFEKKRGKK
B2: Kinetochore protein Nuf2 (Homo sapiens), Q9BZD4 (parent)
chain: METLSFPRYNVAEIVIHIRNKILTGADGKNLTKNDLYPNPKPEVLHMIYMRALQIVYGIRLEHFYMMPVNSEVMYPHLMEGFLPFSNLVTHLDSFLPICRVNDFETADILCPKAKRTSRFLSGIINFIHFREACRETYMEFLWQYKSSADKMQQLNAAHQEALMKLERLDSVPVEEQEEFKQLSDGIQELQQSLNQDFHQKTIVLQEGNSQKKSNISEKTKRLNELKLSVVSLKEIQESLKTKIVDSPEKLKNYKEKMKDTVQKLKNARQEVVEKYEIYGDSVDCLPSCQLEVQLYQKKIQDLSDNREKLASILKESLNLEDQIESDESELKKLKTEENSFKRLMIVKKEKLATAQFKINKKHEDVKQYKRTVIEDCNKVQEKRGAVYERVTTINQEIQKIKLGIQQLKDAAEREKLKSQEIFLNLKTALEKYHDGIEKAAEDSYAKIDEKTAELKRKMFKMST
partner: B1 partner

Variants of: B1
Details: with TTK

| effect of a mutation on the interaction | Variant |
| --- | --- |
| decreasing interaction strength | K89E;K166E |
| decreasing interaction strength | K166E |
| decreasing interaction strength | K89E |

Variants of: B2
Details: with TTK

| effect of a mutation on the interaction | Variant |
| --- | --- |
| disrupting interaction strength | METLSAARYNVAEIVIHIRNKILTGADGKNLTKNDLYPNPKPEVLHMIYMRALQIVYGIRLEHFYMMPVNSEVMYPHLMEGFLPFSNLVTHLDSFLPICRVNDFETADILCPKAKRTSRFLSGIINFIHFREACRETYMEFLWQYKSSADKMQQLNAAHQEALMKLERLDSVPVEEQEEFKQLSDGIQELQQSLNQDFHQKTIVLQEGNSQKKSNISEKTKRLNELKLSVVSLKEIQESLKTKIVDSPEKLKNYKEKMKDTVQKLKNARQEVVEKYEIYGDSVDCLPSCQLEVQLYQKKIQDLSDNREKLASILKESLNLEDQIESDESELKKLKTEENSFKRLMIVKKEKLATAQFKINKKHEDVKQYKRTVIEDCNKVQEKRGAVYERVTTINQEIQKIKLGIQQLKDAAEREKLKSQEIFLNLKTALEKYHDGIEKAAEDSYAKIDEKTAELKRKMFKMST [F6A;P7A] |
| decreasing interaction strength | METLSFPRYNVAEIVIHIRNKILTGADGKNLTKNDLYPNPKPEVLHMIYMRALQIVYGIRLEHFYMMPVNSEVMYPHLMEGFLPFSNLVTHLDSFLPICRVNDFETADILCPKAERTSRFLSGIINFIHFREACRETYMEFLWQYKSSADKMQQLNAAHQEALMKLERLDSVPVEEQEEFKQLSDGIQELQQSLNQDFHQKTIVLQEGNSQKKSNISEKTKRLNELKLSVVSLKEIQESLKTKIVDSPEKLKNYKEKMKDTVQKLKNARQEVVEKYEIYGDSVDCLPSCQLEVQLYQKKIQDLSDNREKLASILKESLNLEDQIESDESELKKLKTEENSFKRLMIVKKEKLATAQFKINKKHEDVKQYKRTVIEDCNKVQEKRGAVYERVTTINQEIQKIKLGIQQLKDAAEREKLKSQEIFLNLKTALEKYHDGIEKAAEDSYAKIDEKTAELKRKMFKMST [K115E] |
| decreasing interaction strength | METLSFPRYNVAEIVIHIRNKILTGADGKNLTKNDLYPNPKPEVLHMIYMRALQIVYGIRLEHFYMMPVNSEVMYPHLMEGFLPFSNLVTHLDSFLPICRVNDFETADILCPKAKETSRFLSGIINFIHFREACRETYMEFLWQYKSSADKMQQLNAAHQEALMKLERLDSVPVEEQEEFKQLSDGIQELQQSLNQDFHQKTIVLQEGNSQKKSNISEKTKRLNELKLSVVSLKEIQESLKTKIVDSPEKLKNYKEKMKDTVQKLKNARQEVVEKYEIYGDSVDCLPSCQLEVQLYQKKIQDLSDNREKLASILKESLNLEDQIESDESELKKLKTEENSFKRLMIVKKEKLATAQFKINKKHEDVKQYKRTVIEDCNKVQEKRGAVYERVTTINQEIQKIKLGIQQLKDAAEREKLKSQEIFLNLKTALEKYHDGIEKAAEDSYAKIDEKTAELKRKMFKMST [R116E] |
| decreasing interaction strength | METLSFPRYNVAEIVIHIRNKILTGADGKNLTKNDLYPNPKPEVLHMIYMRALQIVYGIRLEHFYMMPVNSEVMYPHLMEGFLPFSNLVTHLDSFLPICRVNDFETADILCPKAKRTSRFLSGIINFIAFREACRETYMEFLWQYKSSADKMQQLNAAHQEALMKLERLDSVPVEEQEEFKQLSDGIQELQQSLNQDFHQKTIVLQEGNSQKKSNISEKTKRLNELKLSVVSLKEIQESLKTKIVDSPEKLKNYKEKMKDTVQKLKNARQEVVEKYEIYGDSVDCLPSCQLEVQLYQKKIQDLSDNREKLASILKESLNLEDQIESDESELKKLKTEENSFKRLMIVKKEKLATAQFKINKKHEDVKQYKRTVIEDCNKVQEKRGAVYERVTTINQEIQKIKLGIQQLKDAAEREKLKSQEIFLNLKTALEKYHDGIEKAAEDSYAKIDEKTAELKRKMFKMST [H129A] |
| disrupting interaction strength | METLSFPRYNVAEIVIHIRNKILTGADGKNLTKNDLYPNPKPEVLHMIYMRALQIVYGIRLEHFYMMPVNSEVMYPHLMEGFLPFSNLVTHLDSFLPICRVNDFETADILCPKAKRTSRFLSGIIAFIHFREACRETYMEFLWQYKSSADKMQQLNAAHQEALMKLERLDSVPVEEQEEFKQLSDGIQELQQSLNQDFHQKTIVLQEGNSQKKSNISEKTKRLNELKLSVVSLKEIQESLKTKIVDSPEKLKNYKEKMKDTVQKLKNARQEVVEKYEIYGDSVDCLPSCQLEVQLYQKKIQDLSDNREKLASILKESLNLEDQIESDESELKKLKTEENSFKRLMIVKKEKLATAQFKINKKHEDVKQYKRTVIEDCNKVQEKRGAVYERVTTINQEIQKIKLGIQQLKDAAEREKLKSQEIFLNLKTALEKYHDGIEKAAEDSYAKIDEKTAELKRKMFKMST [N126A] |
| decreasing interaction strength | METLSFPRYNVAEIVIHIRNKILTGADGKNLTKNDLYPNPKPEVLHMIYMRALQIVYGIRLEHFYMMPVNSEVMYPHLMEGFLPFSNLVTHLDSFLPICRVNKFETADILCPKAKRTSRFLSGIINFIHFREACRETYMEFLWQYKSSADKMQQLNAAHQEALMKLERLDSVPVEEQEEFKQLSDGIQELQQSLNQDFHQKTIVLQEGNSQKKSNISEKTKRLNELKLSVVSLKEIQESLKTKIVDSPEKLKNYKEKMKDTVQKLKNARQEVVEKYEIYGDSVDCLPSCQLEVQLYQKKIQDLSDNREKLASILKESLNLEDQIESDESELKKLKTEENSFKRLMIVKKEKLATAQFKINKKHEDVKQYKRTVIEDCNKVQEKRGAVYERVTTINQEIQKIKLGIQQLKDAAEREKLKSQEIFLNLKTALEKYHDGIEKAAEDSYAKIDEKTAELKRKMFKMST [D103K] |
